In patent US20090149339A1 (published 2009):
Ends that are not written are not given here. * marks the point of attachment. Biotin = O=C1N[C@H]2[C@H](CS[C@H]2CCCCC(=O)*)N1

Legend:
Assay in all cases: A/G assays
[1] = biological target: T1, GST-KIAA0316 PDZ domain fusion protein (KIAA0316 AA197-284; PDZ domain 1 of 1) (UniProt P08515 1-218 = GST)
T1 construct: also called K316

[2] = biological target: GST-prIL16 PDZ domain fusion protein (putative interleukin 16 precursor AA170-383; PDZ domains 1-2 of 2) (UniProt P08515 1-218 = GST)
[3] = biological target: T2, GST-RGS12 PDZ domain fusion protein (human regulator of G-protein signalling 12 AA35-103; PDZ domain 1 of 1) (human, UniProt P08515 1-218 = GST)
T2 construct: also called RSG12

[4] = biological target: T3, GST-41.8 kD PDZ domain fusion protein (hypothetical 41.8 kD protein AA4-85; PDZ domain 1 of 1) (UniProt P08515 1-218 = GST)
T3 construct: also called hypoth

[5] = biological target: T4, GST-KIAA0303 PDZ domain fusion protein (KIAA0303 AA652-742; PDZ domain 1 of 1) (UniProt P08515 1-218 = GST)
T4 construct: also called K303

[6] = biological target: T5, GST-TAX43 PDZ domain fusion protein (human tax interaction protein 43 AA15-85; PDZ domain 1 of 1) (human, UniProt P08515 1-218 = GST)
T5 construct: also called TX 43

[7] = biological target: T6, GST-CASK PDZ domain fusion protein (CASK AA495-584; PDZ domain 1 of 1) (mouse, UniProt P08515 1-218 = GST)
T6 construct: also called mCASK

[8] = biological target: GST-PSD95 PDZ domain fusion protein (human post-synaptic density protein 95 AA387-724; PDZ domains 1-3 of 3) (human, UniProt P08515 1-218 = GST)
[9] = biological target: GST-LIMK2 PDZ domain fusion protein (human LIM domain kinase 2 AA185-275; PDZ domain 1 of 1) (human, UniProt P08515 1-218 = GST)
[10] = biological target: GST-PTN-4 PDZ domain fusion protein (protein-tyrosine phosphatase meg1 AA774-862; PDZ domain 1 of 1) (UniProt P08515 1-218 = GST)
[11] = biological target: T7, GST-CBP PDZ domain fusion protein (Cytohesin binding protein HE AA85-175; PDZ domain 1 of 1) (UniProt P08515 1-218 = GST)
T7 construct: also called Prot

[12] = biological target: T8, GST-KIAA0559 PDZ domain fusion protein (KIAA0559 AA766-870; PDZ1 of 1) (UniProt P08515 1-218 = GST)
T8 construct: also called K559

[13] = biological target: GST-NOS1 PDZ domain fusion protein (human neuronal nitric oxide synthase; PDZ domain 1 of 1) (human, UniProt P08515 1-218 = GST)
[14] = biological target: T9, GST-NeDLG PDZ domain fusion protein (presynaptic protein sao102, neuroendocrine-dlg; PDZ domains 1-2 of 3) (UniProt P08515 1-218 = GST)
T9 construct: also called NeDLG1

[15] = biological target: T10, GST-SYN1a PDZ domain fusion protein (alpha1-syntrophin AA96-189; PDZ domain 1 of 1) (UniProt P08515 1-218 = GST)
T10 construct: also called SYN 1 alpha; SYNTR 1 alpha

[16] = biological target: GST-AF6 PDZ domain fusion protein (af-6 protein AA985-1077; PDZ domain 1 of 1) (UniProt P08515 1-218 = GST)
[17] = biological target: GST-LIM PDZ domain fusion protein (Human LIM protein AA29-112; PDZ domain 1 of 1) (human, UniProt P08515 1-218 = GST)
[18] = biological target: T11, GST-MPP2 PDZ domain fusion protein (maguk p55 subfamily member 2 (DLG2) AA185-273; PDZ domain 1 of 1) (UniProt P08515 1-218 = GST)
T11 construct: also called MMP2

[19] = biological target: GST-MINT3 PDZ domain fusion protein (human MINT3 AA11-52; PDZ domain 1 of 1) (human, UniProt P08515 1-218 = GST)
[20] = biological target: GST-TIAM1 PDZ domain fusion protein (T-lymphoma invasion and metastasis inducing protein 1 AA1001-1088); PDZ 1 … (UniProt P08515 1-218 = GST)
[21] = biological target: T12, GST-TAX2 PDZ domain fusion protein (human tax interaction protein 2 AA54-140; PDZ domain 1 of 1) (human, UniProt P08515 1-218 = GST)
T12 construct: also called TX 2

[22] = biological target: GST-DVL1 PDZ domain fusion protein (human dishevelled segment polarity protein homolog AA248-340); PDZ domain … (human, UniProt P08515 1-218 = GST)
[23] = biological target: T13, GST-TAX40 PDZ domain fusion protein (human tax interaction protein 40 AA35-137; PDZ domain 1 of 1) (human, UniProt P08515 1-218 = GST)
T13 construct: also called TX 40

[24] = biological target: GST-MPP1 PDZ domain fusion protein (55 Kd erythrocyte membrane protein AA101-186; PDZ domain 1 of 1) (UniProt P08515 1-218 = GST)
[25] = biological target: T14, GST-TAX33 PDZ domain fusion protein (tax interaction protein 33 AA73-162; PDZ domain 1 of 1) (UniProt P08515 1-218 = GST)
T14 construct: also called TX33

Measured: binding result

Sequence of GST-NOS1 PDZ domain fusion protein (human neuronal nitric oxide synthase; PDZ domain 1 of 1) (P08515 1-218, tags or fused parts left off): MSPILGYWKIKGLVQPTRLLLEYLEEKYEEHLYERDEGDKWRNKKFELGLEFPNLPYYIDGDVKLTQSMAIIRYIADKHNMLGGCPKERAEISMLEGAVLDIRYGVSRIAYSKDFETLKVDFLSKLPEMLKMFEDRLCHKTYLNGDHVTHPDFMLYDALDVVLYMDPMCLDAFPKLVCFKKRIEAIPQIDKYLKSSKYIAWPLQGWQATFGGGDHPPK
T6 sequence (P08515 1-218, tags or fused parts left off): as above
Sequence of GST-MPP1 PDZ domain fusion protein (55 Kd erythrocyte membrane protein AA101-186; PDZ domain 1 of 1) (P08515 1-218, tags or fused parts left off): as above
T3 sequence (P08515 1-218, tags or fused parts left off): as above
Sequence of GST-AF6 PDZ domain fusion protein (af-6 protein AA985-1077; PDZ domain 1 of 1) (P08515 1-218, tags or fused parts left off): as above
T10 sequence (P08515 1-218, tags or fused parts left off): as above
Sequence of GST-LIM PDZ domain fusion protein (Human LIM protein AA29-112; PDZ domain 1 of 1) (P08515 1-218, tags or fused parts left off): as above
T4 sequence (P08515 1-218, tags or fused parts left off): as above
T7 sequence (P08515 1-218, tags or fused parts left off): as above
Sequence of GST-DVL1 PDZ domain fusion protein (human dishevelled segment polarity protein homolog AA248-340); PDZ domain … (P08515 1-218, tags or fused parts left off): as above
Sequence of GST-TIAM1 PDZ domain fusion protein (T-lymphoma invasion and metastasis inducing protein 1 AA1001-1088); PDZ 1 … (P08515 1-218, tags or fused parts left off): as above
T5 sequence (P08515 1-218, tags or fused parts left off): as above
T11 sequence (P08515 1-218, tags or fused parts left off): as above
T8 sequence (P08515 1-218, tags or fused parts left off): as above
T12 sequence (P08515 1-218, tags or fused parts left off): as above
Sequence of GST-LIMK2 PDZ domain fusion protein (human LIM domain kinase 2 AA185-275; PDZ domain 1 of 1) (P08515 1-218, tags or fused parts left off): as above
Sequence of GST-MINT3 PDZ domain fusion protein (human MINT3 AA11-52; PDZ domain 1 of 1) (P08515 1-218, tags or fused parts left off): as above
T14 sequence (P08515 1-218, tags or fused parts left off): as above
Sequence of GST-PSD95 PDZ domain fusion protein (human post-synaptic density protein 95 AA387-724; PDZ domains 1-3 of 3) (P08515 1-218, tags or fused parts left off): as above
T9 sequence (P08515 1-218, tags or fused parts left off): as above
Sequence of GST-PTN-4 PDZ domain fusion protein (protein-tyrosine phosphatase meg1 AA774-862; PDZ domain 1 of 1) (P08515 1-218, tags or fused parts left off): as above

Biotin-GKGKSIGRAPEASLQDKEGA [CC CKR-2 C-terminal PL peptide AA42L, biotinylated]
no binding: all assays above

Biotin-CAISGTSSDRGYGSPRYAEV [CLASP-4 C-terminal PL peptide AA3L-V, biotinylated]
not listed: [4] | [8] | [14] | [16]
no binding: all other assays above

Biotin-TIYENLAPVTTFGKTIA [CD148 C-terminal PL peptide AA55L (ends KTIA), biotinylated]
no binding: all assays above

Biotin-LERTSSVSPSTAEPELSIVF [CC CKR-3 C-terminal PL peptide AA43L, biotinylated]
no binding: all assays above
